From paper PMC2363969 (British Journal of Cancer, 2001) come the findings set out here.

What is called IC50 is the concentration that inhibits the measured activity by half.

In one assay the target is HLA-DRB1*0404 (human). The experiment in a line: radioligand binding; solid-state competitive-binding assay (as in Southwood et al, 1998): the peptide blocks the binding of a radio-labeled reference peptide to purified HLA-DR4 complexes; IC50 in nM. The settings on record: both partners purified.
A further assay deals with HLA-DRB1*0401 (human). The description is as above. The conditions noted are these: both partners purified.

B1: gp100/pmel17 506-522 (peptide)
peptide: EGDAFELTVSCQGGLPK
notes: gp100/pmel17 melanoma-associated antigen, residues 506-522; also called gp100506-522; g506; source: synthetic peptide (FMOC chemistry, UPCI Peptide Synthesis Facility), >90% pure
For B1, the IC50 with HLA-DRB1*0404 came to 3.55 µM; with HLA-DRB1*0401, 3.21 µM.

B2: gp100/pmel17 540-561 (peptide)
peptide: LCQPVLPSPACQLVLHQILKGG
notes: gp100/pmel17 melanoma-associated antigen, residues 540-561; also called gp100540-561; g540; source: synthetic peptide (FMOC chemistry, UPCI Peptide Synthesis Facility), >90% pure
In turn, B2 returned an IC50 with HLA-DRB1*0404 of 0.614 µM.

B3: gp100/pmel17 283-304 (peptide)
peptide: PGPVTAQVVLQAAIPLTSCGSS
notes: gp100/pmel17 melanoma-associated antigen, residues 283-304; also called gp100283-304; g283; source: synthetic peptide (FMOC chemistry, UPCI Peptide Synthesis Facility), >90% pure
For the molecule B3, the IC50 in the assay with HLA-DRB1*0401 was determined as 2.89 µM.

B4: gp100/pmel17 167-189 (peptide)
peptide: VSGLSIGTGRAMLGTHTMEVTVY
notes: gp100/pmel17 melanoma-associated antigen, residues 167-189; also called gp100167-179; g167; source: synthetic peptide (FMOC chemistry, UPCI Peptide Synthesis Facility), >90% pure
As to B4, in the assay with HLA-DRB1*0404, the IC50 was found to be 0.372 µM.

B5: gp100/pmel17 6-26 (peptide)
peptide: KRCLLHLAVIGALLAVGATKV
notes: gp100/pmel17 melanoma-associated antigen, residues 6-26; also called gp1006-26; g6; source: synthetic peptide (FMOC chemistry, UPCI Peptide Synthesis Facility), >90% pure
On to B5, for which the IC50 with HLA-DRB1*0404 was found to be 0.335 µM.
